Patent publication US11952373B2, “Method of treating hypercytokinemia by administering the CCR5/CCL5 (RANTES) interaction inhibitor maraviroc” (priority 2020, dated 2024)
“Also recorded” adds a separate entry of the source.

How the values were obtained:
IL-6 = test: Plasma cytokine/chemokine panel in critical COVID-19 patients, IL-6; format: in vivo, human; conditions: Day 7 post-leronlimab vs Day 0, critical COVID-19 patients
From the text: (§1) To determine the extent and phenotype of “cytokine storm” cytokines and chemokines in critical COVID-19, a panel of 38 cytokines/chemokines was quantified in plasma from the ten critical COVID-19 patients at Day 0, Day 3 and Day 7 post-leronlimab therapy.

CCL5/RANTES = test: Plasma cytokine/chemokine panel in critical COVID-19 patients, CCL5/RANTES; format: in vivo, human
From the text: as §1

[1] = test system: CD8 and CD4 T-cells (PD-1, LAG-3, cleaved caspase 3); test: Immunophenotyping / high parameter flow cytometry of T-cells and exhaustion markers in critical COVID-19 patients; format: in vivo, human; conditions: for exhaustion markers (PD-1, LAG-3, cleaved caspase 3) on CD8 and CD4 T-cells: after 700 mg leronlimab, all ten patients
[2] = test system: critically ill patients with COVID-19; test: Clinical outcome of critically ill COVID-19 patients given leronlimab; format: in vivo, human; conditions: by Day 14, 10 critically ill COVID-19 patients
CCR5 = CCR5 (Homo sapiens, UniProt P51681); conditions: day 7, all ten critical COVID-19 patients, 700 mg leronlimab
Sequence of CCR5 (P51681 whole entry): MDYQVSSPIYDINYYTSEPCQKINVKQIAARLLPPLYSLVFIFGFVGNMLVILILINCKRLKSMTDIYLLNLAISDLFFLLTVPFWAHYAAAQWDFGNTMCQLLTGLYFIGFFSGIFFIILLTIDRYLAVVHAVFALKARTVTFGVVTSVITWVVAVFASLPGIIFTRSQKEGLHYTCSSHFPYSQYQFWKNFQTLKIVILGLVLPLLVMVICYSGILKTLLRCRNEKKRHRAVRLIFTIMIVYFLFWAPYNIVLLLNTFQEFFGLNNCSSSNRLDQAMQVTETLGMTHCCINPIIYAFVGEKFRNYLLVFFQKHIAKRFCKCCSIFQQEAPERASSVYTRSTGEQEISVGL

B1: leronlimab: a humanized monoclonal antibody directed against CCR5 (antibody, chains of the INN, looked up, V domains shown)
VH: EVQLVESGGGLVKPGGSLRLSCAASGYTFSNYWIGWVRQAPGKGLEWIGDIYPGGNYIRNNEKFKDKTTLSADTSKNTAYLQMNSLKTEDTAVYYCGSSFGSNYVFAWFTYWGQGTLVTVSS
VL: DIVMTQSPLSLPVTPGEPASISCRSSQRLLSSYGHTYLHWYLQKPGQSPQLLIYEVSNRFSGVPDRFSGSGSGTDFTLKISRVEAEDVGVYYCSQSTHVPLTFGQGTKVEIK
**Q.** How did the “plasma IL-6 level change” value (IL-6) turn out when B1 was run?
**A.** Its value is “reduces IL-6; also recorded: significantly decreased; also recorded: dropped dramatically”.

**Q.** What about the “plasma CCL5/RANTES level change” value (CCL5/RANTES; Day 7 post-leronlimab, critical COVID-19 patients) of the same molecule?
**A.** The value was “remained high; also recorded: did not drop as abruptly”.

**Q.** And the “plasma CCL5/RANTES level change” value (CCL5/RANTES; Day 14, patients where data was available)?
**A.** Its value is “initiation of a drop”.

**Q.** And the “exhaustion markers (PD-1, LAG-3, cleaved caspase 3) on CD8 and CD4 T-cells” value [1]?
**A.** The value was “improvement in exhaustion markers”.

**Q.** And the “exhaustion markers (PD-1, LAG-3, cleaved caspase 3) on CD8 and CD4 T-cells” value ([1]; listed as Leronlimab)?
**A.** The value was “improvements in exhaustion markers”.

**Q.** What about the “immune restoration including T-cell numbers” value ([1]; all patients) of the same molecule?
**A.** Its value is “immune restoration”.

**Q.** What about the “T-cell level and CD4/CD8 ratio” value ([1]; as little as 3 days post-therapy) of the same molecule?
**A.** Its value is “begins to restore T-cell level and correct the gross alteration of CD4/CD8 ratio”.

**Q.** And the “immune profile compared to normal control blood” value ([1]; by Day 7 after 700 mg leronlimab)?
**A.** Its value is “resembled the normal control blood”.

**Q.** What about the “expression of PD-1 and LAG3 on T-cells” value ([1]; following 7 days of leronlimab, compared to Day 0) of the same molecule?
**A.** Its value is “significantly decreases”.

**Q.** What about the “patients extubated and released” value [2] of the same molecule?
**A.** Its value is 4.

**Q.** And the patients surviving [2]?
**A.** The patients surviving was “six out of 10”.

**Q.** And the “blockade of CCR5 as determined by receptor occupancy” value (CCR5)?
**A.** Its value is about 100%.
